Data on 2 molecules can be found in patent publication US20170210802A1 (INNATE PHARMA, published 2017).

The target of experiment [1] is T1, human FcRn (recombinant, Example 10) (human, UniProt P55899 24-297; P61769 21-119, limits assumed).
T1 construct: also called recombinant FcRn proteins
Briefly: SPR, recombinant FcRn immobilised on CM5, SCK/Two state reaction. (SPR reads the build-up and loss of mass on a sensor chip optically.)

In experiment [2] the target is T2, Human NKp46 recombinant proteins (human, UniProt O76036 22-258, limits assumed).
T2 construct: also called recombinant human NKp46
Briefly: SPR (Biacore T100), antibody captured on Protein-A chip, recombinant human NKp46 injected (6.25-400 nM), 1:1 kinetic model. As for the experimental part:
SPR measurements were performed on a Biacore T100 apparatus (Biacore GE Healthcare) at 25° C. In all Biacore experiments HBS-EP+(Biacore GE Healthcare) and NaOH 10 mM served as running buffer and regeneration buffer respectively. Sensorgrams were analyzed with Biacore T100 Evaluation software. Protein-A was purchase from (GE Healthcare). Human NKp46 recombinant proteins were cloned, produced and purified at Innate Pharma.
Protein-A proteins were immobilized covalently to carboxyl groups in the dextran layer on a Sensor Chip CM5. The chip surface was activated with EDC/NHS (N-ethyl-N′-(3-dimethylaminopropyl) carbodiimidehydrochloride and N-hydroxysuccinimide (Biacore GE Healthcare)). Protein-A was diluted to 10 μg/ml in coupling buffer (10 mM acetate, pH 5.6) and injected until the appropriate immobilization level was reached (i.e. 2000 RU). Deactivation of the remaining activated groups was performed using 100 mM ethanolamine pH 8 (Biacore GE Healthcare).
Monovalent affinity study was done following a regular Capture-Kinetic protocol recommended by the manufacturer (Biacore GE Healthcare kinetic wizard). Seven serial dilutions of human NKp46 recombinant proteins, ranging from 6.25 to 400 nM were sequentially injected over the captured Bi-Specific antibodies and allowed to dissociate for 10 min before regeneration. The entire sensorgram sets were fitted using the 1:1 kinetic binding model.

T2 sequence (O76036 22-258 limits assumed): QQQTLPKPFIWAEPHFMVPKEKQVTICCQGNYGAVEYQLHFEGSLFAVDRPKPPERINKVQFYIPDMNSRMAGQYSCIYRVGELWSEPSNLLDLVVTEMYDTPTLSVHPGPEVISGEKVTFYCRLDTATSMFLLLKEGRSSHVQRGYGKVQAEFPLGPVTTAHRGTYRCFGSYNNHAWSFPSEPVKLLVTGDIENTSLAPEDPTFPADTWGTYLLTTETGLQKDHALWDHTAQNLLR
T1 sequence (P55899 24-297 limits assumed, form in doubt, chain 1 of 2): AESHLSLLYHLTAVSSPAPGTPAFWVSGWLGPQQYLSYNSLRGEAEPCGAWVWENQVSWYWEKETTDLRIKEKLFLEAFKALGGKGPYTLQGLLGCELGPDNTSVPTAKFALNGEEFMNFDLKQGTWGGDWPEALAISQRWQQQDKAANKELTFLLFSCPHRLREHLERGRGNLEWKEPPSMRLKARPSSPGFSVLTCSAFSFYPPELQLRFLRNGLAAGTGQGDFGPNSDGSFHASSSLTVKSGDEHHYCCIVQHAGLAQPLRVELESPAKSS
T1 sequence (P61769 21-119 limits assumed, form in doubt, chain 2 of 2): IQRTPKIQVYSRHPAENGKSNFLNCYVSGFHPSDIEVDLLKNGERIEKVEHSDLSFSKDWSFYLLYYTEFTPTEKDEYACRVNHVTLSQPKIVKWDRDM

B1: CD19-F5-NKp46-3 (bispecific antibody, human IgG1, kappa)
chain 1: not shown
chain 2: not shown
chain 3: DIVMTQSPATLSVTPGDRVSLSCRASQSISDYLHWYQQKSHESPRLLIKYASQSISGIPSRFSGSGSGSDFTLSINSVEPEDVGVYYCQNGHSFPLTFGAGTKLELKASTKGPSVFPLAPSSKSTSGGTAALGCLVKDYFPEPVTVSWNSGALTSGVHTFPAVLQSSGLYSLSSVVTVPSSSLGTQTYICNVNHKPSNTKVDKRVEPKSCDKTH
notes: Heterotrimer with dimeric Fc domain; also called Format 5 (F5)
What is called Kd is the free concentration of one partner at which half of the binding sites on the other are occupied at equilibrium, for simple one-to-one binding. What is called koff is a measure of how fast the partners let go of each other. The term kon denotes the second-order rate constant of association. For B1, the dissociation constant Kd in experiment [1] is 2.6 nM. In addition, in experiment [2], the equilibrium dissociation constant (Kd) was determined as 67 nM, the off-rate constant (koff) stood at 0.0051 s⁻¹ and the association rate constant (kon) stood at 75600 M⁻¹ s⁻¹.

B2: CD19-F6-NKp46-3 (bispecific antibody, human IgG1, kappa)
chain 1: not shown
chain 2: not shown
chain 3: DIVMTQSPATLSVTPGDRVSLSCRASQSISDYLHWYQQKSHESPRLLIKYASQSISGIPSRFSGSGSGSDFTLSINSVEPEDVGVYYCQNGHSFPLTFGAGTKLELKASTKGPSVFPLAPSSKSTSGGTAALGCLVKDYFPEPVTVSWNSGALTSGVHTFPAVLQSSGLYSLSSVVTVPSSSLGTQTYICNVNHKPSNTKVDKRVEPKSCDKTH
notes: also called Format 6 (F6)
As for B2, the Kd in experiment [1] was 6 nM. In experiment [2], the Kd amounted to 63 nM, the koff came to 0.00503 s⁻¹ and the kon was found to be 79300 M⁻¹ s⁻¹.
